This is an account of results in PMC3776929 (Cell, 2013).

The target of assay [1] is T1, Ino80 (UniProt P53115 1-1489).
T1 construct: Ino80, catalytic subunit of the INO80 complex
The experiment in a line: co-IP; INO80 complex purified by affinity and glycerol gradient, resolved on 4%-12% Bis-Tris gels in MOPS buffer; band intensities normalised for protein size. The note with it: partners not purified.

The target of assay [2] is T2, Swr1, FLAG-tagged catalytic subunit of the SWR1 complex (S. cerevisiae, UniProt Q05471 1-1514).
T2 construct: Swr1, catalytic ATPase subunit of the SWR1 complex, S. cerevisiae; HSA domain in the N-terminal half, split ATPase domain with long insert in the C-terminal half; also called Swr1-3xFLAG; Swr1 ATPase
T2 sequence (Q05471 whole entry, the tested form may be a part, one chain of several): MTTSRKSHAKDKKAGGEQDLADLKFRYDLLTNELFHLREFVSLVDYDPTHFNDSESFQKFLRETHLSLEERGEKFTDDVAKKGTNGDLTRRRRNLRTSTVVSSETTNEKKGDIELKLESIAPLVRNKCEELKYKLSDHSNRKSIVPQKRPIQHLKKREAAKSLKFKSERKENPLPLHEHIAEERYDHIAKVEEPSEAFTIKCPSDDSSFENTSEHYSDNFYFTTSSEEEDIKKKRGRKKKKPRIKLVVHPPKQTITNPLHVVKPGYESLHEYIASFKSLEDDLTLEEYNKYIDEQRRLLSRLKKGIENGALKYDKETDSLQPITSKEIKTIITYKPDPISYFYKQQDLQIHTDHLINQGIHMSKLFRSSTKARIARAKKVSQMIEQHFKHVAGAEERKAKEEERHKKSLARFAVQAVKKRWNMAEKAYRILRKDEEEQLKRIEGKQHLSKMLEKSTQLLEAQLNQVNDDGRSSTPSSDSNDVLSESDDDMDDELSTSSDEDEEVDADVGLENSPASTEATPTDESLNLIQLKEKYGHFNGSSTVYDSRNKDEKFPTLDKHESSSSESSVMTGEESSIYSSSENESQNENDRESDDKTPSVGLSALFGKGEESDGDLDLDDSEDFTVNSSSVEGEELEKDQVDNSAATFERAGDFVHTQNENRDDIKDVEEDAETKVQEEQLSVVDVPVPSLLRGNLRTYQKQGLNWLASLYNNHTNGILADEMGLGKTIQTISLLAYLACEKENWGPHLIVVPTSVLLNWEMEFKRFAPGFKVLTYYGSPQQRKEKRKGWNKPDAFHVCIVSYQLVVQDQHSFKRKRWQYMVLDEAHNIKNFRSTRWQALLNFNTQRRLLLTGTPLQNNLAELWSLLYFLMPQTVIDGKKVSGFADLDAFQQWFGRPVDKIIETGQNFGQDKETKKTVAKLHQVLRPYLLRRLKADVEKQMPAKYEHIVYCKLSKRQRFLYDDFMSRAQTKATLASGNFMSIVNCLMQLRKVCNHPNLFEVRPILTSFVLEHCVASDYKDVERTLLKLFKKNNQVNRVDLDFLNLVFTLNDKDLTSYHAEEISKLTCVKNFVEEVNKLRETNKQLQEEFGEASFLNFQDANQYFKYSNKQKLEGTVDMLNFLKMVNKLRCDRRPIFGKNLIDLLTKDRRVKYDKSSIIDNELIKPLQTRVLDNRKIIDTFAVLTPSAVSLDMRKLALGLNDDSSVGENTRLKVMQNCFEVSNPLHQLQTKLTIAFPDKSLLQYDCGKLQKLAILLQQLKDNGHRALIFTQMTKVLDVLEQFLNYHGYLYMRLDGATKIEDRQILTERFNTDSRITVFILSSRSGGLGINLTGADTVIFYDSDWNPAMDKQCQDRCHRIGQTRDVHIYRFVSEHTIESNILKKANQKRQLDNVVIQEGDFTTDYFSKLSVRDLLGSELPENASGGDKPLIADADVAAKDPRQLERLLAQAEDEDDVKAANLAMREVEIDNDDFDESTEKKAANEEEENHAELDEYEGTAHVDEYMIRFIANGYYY
The experiment in a line: co-IP; FLAG affinity purification of SWR1 (or a subcomplex) from S. cerevisiae, eluted with 3× FLAG peptide; SDS-PAGE (4%-12% Bis-Tris), Coomassie or SYPRO Orange stain; band intensities normalised for protein size for the stoichiometry. The note with it: partners not purified.

Assay [3] has as its target T2, Swr1, FLAG-tagged catalytic subunit of …. The experiment in a line: cross-linking; ∼45 μg affinity-purified SWR1 cross-linked with 1 mM DSS d0/d12 in SWR1 buffer, 37°C, 30 min; trypsin, SEC enrichment, LC-MS/MS, xQuest (CX-MS). As to conditions: both partners purified.
The target in assay [4] is T3, Arp4 (S. cerevisiae, UniProt P80428 1-489).
T3 construct: Arp4, actin-related protein, N-Module subunit of SWR1, S. cerevisiae; source: endogenous, S. cerevisiae; co-purified in the SWR1 complex
T3 sequence (looked up): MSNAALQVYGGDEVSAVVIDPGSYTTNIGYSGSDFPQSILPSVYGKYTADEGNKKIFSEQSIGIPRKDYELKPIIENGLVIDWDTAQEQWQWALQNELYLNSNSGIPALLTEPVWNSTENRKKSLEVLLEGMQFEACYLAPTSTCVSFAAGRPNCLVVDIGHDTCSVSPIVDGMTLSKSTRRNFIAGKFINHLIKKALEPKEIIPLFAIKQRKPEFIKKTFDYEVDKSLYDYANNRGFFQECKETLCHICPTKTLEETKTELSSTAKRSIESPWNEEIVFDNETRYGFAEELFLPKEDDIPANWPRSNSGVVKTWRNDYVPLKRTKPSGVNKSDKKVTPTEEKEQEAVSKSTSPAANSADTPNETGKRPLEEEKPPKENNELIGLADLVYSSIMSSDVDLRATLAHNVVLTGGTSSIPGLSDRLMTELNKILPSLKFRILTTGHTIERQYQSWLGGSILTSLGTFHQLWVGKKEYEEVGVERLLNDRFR
Described as above. The note with it: both partners purified.

Assay [5] concerns the target T4, Swc2 (S. cerevisiae, UniProt Q03388 1-795).
T4 construct: Swc2, C-Module subunit of SWR1, S. cerevisiae; source: endogenous, S. cerevisiae; co-purified in the SWR1 complex
T4 sequence (looked up): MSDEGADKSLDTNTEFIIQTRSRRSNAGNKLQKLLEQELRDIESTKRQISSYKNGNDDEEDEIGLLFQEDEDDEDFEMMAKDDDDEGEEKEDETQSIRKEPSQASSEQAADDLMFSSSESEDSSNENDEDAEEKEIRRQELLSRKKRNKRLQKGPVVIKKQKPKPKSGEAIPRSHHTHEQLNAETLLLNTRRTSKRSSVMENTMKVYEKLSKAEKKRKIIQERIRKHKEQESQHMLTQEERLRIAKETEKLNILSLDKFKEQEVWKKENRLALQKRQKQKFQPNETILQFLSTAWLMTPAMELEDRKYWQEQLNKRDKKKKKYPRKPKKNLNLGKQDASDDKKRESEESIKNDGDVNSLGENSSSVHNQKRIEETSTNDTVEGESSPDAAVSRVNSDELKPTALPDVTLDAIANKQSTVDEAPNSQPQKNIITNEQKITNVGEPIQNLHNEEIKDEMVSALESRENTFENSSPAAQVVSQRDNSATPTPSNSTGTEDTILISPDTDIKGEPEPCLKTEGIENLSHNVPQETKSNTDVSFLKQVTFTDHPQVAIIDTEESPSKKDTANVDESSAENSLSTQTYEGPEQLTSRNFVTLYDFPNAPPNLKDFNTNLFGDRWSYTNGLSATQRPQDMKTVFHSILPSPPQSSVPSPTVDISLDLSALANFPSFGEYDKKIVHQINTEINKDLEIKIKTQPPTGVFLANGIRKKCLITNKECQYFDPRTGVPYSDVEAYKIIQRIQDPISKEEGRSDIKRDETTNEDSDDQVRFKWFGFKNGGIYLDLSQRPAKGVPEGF
The description is as above. As to conditions: both partners purified.

T1 sequence (P53115 whole entry): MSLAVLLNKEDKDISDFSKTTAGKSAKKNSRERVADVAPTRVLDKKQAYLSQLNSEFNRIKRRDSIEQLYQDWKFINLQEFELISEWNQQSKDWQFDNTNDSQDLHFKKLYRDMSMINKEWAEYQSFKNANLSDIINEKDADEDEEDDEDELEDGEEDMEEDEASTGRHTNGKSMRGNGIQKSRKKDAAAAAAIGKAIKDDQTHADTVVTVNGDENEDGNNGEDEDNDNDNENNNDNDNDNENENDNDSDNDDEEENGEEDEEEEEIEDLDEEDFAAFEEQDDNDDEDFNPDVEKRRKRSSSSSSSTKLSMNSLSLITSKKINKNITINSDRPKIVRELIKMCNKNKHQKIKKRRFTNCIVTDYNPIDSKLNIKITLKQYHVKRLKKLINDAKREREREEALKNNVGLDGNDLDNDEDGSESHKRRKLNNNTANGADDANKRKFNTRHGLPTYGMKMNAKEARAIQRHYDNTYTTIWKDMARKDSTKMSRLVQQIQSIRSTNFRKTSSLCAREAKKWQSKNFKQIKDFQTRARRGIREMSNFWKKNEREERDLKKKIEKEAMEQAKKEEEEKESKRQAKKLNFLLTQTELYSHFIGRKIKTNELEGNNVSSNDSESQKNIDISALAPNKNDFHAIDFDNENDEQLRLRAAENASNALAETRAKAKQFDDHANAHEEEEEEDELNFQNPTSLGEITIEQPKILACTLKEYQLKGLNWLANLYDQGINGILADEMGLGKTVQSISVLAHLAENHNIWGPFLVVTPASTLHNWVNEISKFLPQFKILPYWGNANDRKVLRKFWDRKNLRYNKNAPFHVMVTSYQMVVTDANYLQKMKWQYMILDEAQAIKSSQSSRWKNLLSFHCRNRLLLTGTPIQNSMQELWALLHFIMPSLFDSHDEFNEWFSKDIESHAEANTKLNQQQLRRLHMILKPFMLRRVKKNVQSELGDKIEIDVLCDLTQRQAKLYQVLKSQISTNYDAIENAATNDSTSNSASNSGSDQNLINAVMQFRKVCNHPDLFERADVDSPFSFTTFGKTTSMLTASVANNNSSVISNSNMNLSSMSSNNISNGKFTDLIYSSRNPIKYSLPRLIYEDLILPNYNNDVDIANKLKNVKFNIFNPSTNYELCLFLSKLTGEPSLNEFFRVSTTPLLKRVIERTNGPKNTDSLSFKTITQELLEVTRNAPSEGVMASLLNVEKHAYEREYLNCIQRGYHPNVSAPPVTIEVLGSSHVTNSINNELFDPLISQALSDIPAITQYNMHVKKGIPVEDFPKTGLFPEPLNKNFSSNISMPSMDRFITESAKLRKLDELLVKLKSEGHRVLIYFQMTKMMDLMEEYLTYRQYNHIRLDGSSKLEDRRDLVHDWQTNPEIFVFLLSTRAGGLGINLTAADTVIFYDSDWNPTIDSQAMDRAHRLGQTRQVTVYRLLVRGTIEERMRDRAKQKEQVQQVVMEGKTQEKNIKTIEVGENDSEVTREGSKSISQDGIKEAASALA

B1: Rvb2 (natural protein, S. cerevisiae, UniProt Q12464 1-471, looked up)
chain: MSIQTSDPNETSDLKSLSLIAAHSHITGLGLDENLQPRPTSEGMVGQLQARRAAGVILKMVQNGTIAGRAVLVAGPPSTGKTALAMGVSQSLGKDVPFTAIAGSEIFSLELSKTEALTQAFRKSIGIKIKEETELIEGEVVEIQIDRSITGGHKQGKLTIKTTDMETIYELGNKMIDGLTKEKVLAGDVISIDKASGKITKLGRSFARSRDYDAMGADTRFVQCPEGELQKRKTVVHTVSLHEIDVINSRTQGFLALFTGDTGEIRSEVRDQINTKVAEWKEEGKAEIVPGVLFIDEVHMLDIECFSFINRALEDEFAPIVMMATNRGVSKTRGTNYKSPHGLPLDLLDRSIIITTKSYNEQEIKTILSIRAQEEEVELSSDALDLLTKTGVETSLRYSSNLISVAQQIAMKRKNNTVEVEDVKRAYLLFLDSARSVKYVQENESQYIDDQGNVQISIAKSADPDAMDTTE
notes: Rvb2, AAA+ ATPase, S. cerevisiae (YPL235W); also called AAA+ ATPase Rvb2; source: endogenous, S. cerevisiae; co-purified in the SWR1 and INO80 complexes
As a reminder, the stoichiometry N is a count of units in the complex or per binding partner. As for B1, the “stoichiometry N” value in assay [1] and in assay [2] was about 3 throughout.

B2: Swc4 (natural protein, S. cerevisiae, UniProt P53201 1-476, looked up)
chain: MSSSDIFDVLNIKQKSRSPTNGQVSVPSSSAANRPKPQVTGMQRELFNLLGENQPPVVIKSGNNFKEKMLSTSKPSPWSFVEFKANNSVTLRHWVKGSKELIGDTPKESPYSKFNQHLSIPSFTKEEYEAFMNENEGTQKSVESEKNHNENFTNEKKDESKNSWSFEEIEYLFNLCKKYDLRWFLIFDRYSYNNSRTLEDLKEKFYYTCRNYFKASDPSNPLLSSLNFSAEKEIERKKYLQRLLSRSAAEIAEEEALVVESKKFEMAAKRTLAERESLLRLLDSPHSDQTITQYLTSQGMSQLYNALLADKTRKRKHDLNIPENPWMKQQQQFAQHRQLQQLNVKKSEVKENLSPKKTKRQRQEMQTALKRKSESAYAEQLLKDFNSDERKALGVITHGEKLSPGVYLRSTKLSTFKPALQNKILAILQELSLPSRPVMPSFDVMERQEELLKKINTLIDLKKHVDKYEAGMSITK
notes: Swc4, N-Module subunit of SWR1, S. cerevisiae; source: endogenous, S. cerevisiae; co-purified in the SWR1 complex
In the case of B2, the binding result in assay [3] and in assay [4] was “binds” in each case.

B3: Bdf1 (natural protein, S. cerevisiae, UniProt P35817 1-686, looked up)
chain: MTDITPVQNDVDVNGNNVNDDVSSNLKRPIDQGDPSNGLAEEENPANNQLHLKKARLDGDALTSSPAGLAENGIEGATLAANGENGYNATGSGAEDEQQGLKKEEGGQGTKQEDLDENSKQELPMEVPKEPAPAPPPEPDMNNLPQNPIPKHQQKHALLAIKAVKRLKDARPFLQPVDPVKLDIPFYFNYIKRPMDLSTIERKLNVGAYEVPEQITEDFNLMVNNSIKFNGPNAGISQMARNIQASFEKHMLNMPAKDAPPVIAKGRRSSAQEDAPIVIRRAQTHNGRPKRTIHPPKSKDIYPYESKKPKSKRLQQAMKFCQSVLKELMAKKHASYNYPFLEPVDPVSMNLPTYFDYVKEPMDLGTIAKKLNDWQYQTMEDFERDVRLVFKNCYTFNPDGTIVNMMGHRLEEVFNSKWADRPNLDDYDSDEDSRTQGDYDDYESEYSESDIDETIITNPAIQYLEEQLARMKVELQQLKKQELEKIRKERRLARGSKKRGKRSKGRSGSKNASSKGRRDKKNKLKTVVTYDMKRIITERINDLPTSKLERAIDIIKKSMPNISEDDEVELDLDTLDNHTILTLYNTFFRQYESSSGASNGLDGTSGVTRDASSLSPTSAGSRKRRSKALSQEEQSRQIEKIKNKLAILDSASPLSQNGSPGQIQSAAHNGFSSSSDDDVSSESEEE
notes: Bdf1, N-Module subunit of SWR1, S. cerevisiae; source: endogenous, S. cerevisiae; co-purified in the SWR1 complex
As for B3, the binding result in assay [5] was “binds”.

B4: Rvb1 (natural protein, S. cerevisiae, UniProt Q03940 1-463, looked up)
chain: MVAISEVKENPGVNSSNSGAVTRTAAHTHIKGLGLDESGVAKRVEGGFVGQIEAREACGVIVDLIKAKKMSGRAILLAGGPSTGKTALALAISQELGPKVPFCPLVGSELYSVEVKKTETLMENFRRAIGLRIKETKEVYEGEVTELTPEDAENPLGGYGKTISHVIVGLKSAKGTKTLRLDPTIYESIQREKVSIGDVIYIEANTGAVKRVGRSDAYATEFDLETEEYVPLPKGEVHKKKEIVQDVTLHDLDVANARPQGGQDVISMMGQLLKPKKTEITEKLRQEVNKVVAKYIDQGVAELIPGVLFIDEVNMLDIEIFTYLNKALESNIAPVVVLASNRGMTTVRGTEDVISPHGVPPDLIDRLLIVRTLPYDKDEIRTIIERRATVERLQVESSALDLLATMGTETSLRYALQLLAPCGILAQTSNRKEIVVNDVNEAKLLFLDAKRSTKILETSANYL
notes: Rvb1, AAA+ ATPase, S. cerevisiae (YDR190C); also called AAA+ ATPase Rvb1; source: endogenous, S. cerevisiae; co-purified in the SWR1 and INO80 complexes
With B4, the “stoichiometry N” value in assay [1] and in assay [2] was about 3 in each case. Further, the binding result in assay [4] is “binds”.

B5: Swc3 (natural protein, S. cerevisiae, UniProt P31376 1-625, looked up)
chain: MPAVLRTRSKESSIEQKPASRTRTRSRRGKRGRDDDDDDDDEESDDAYDEVGNDYDEYASRAKLATNRPFEIVAGLPASVELPNYNSSLTHPQSIKNSGVLYDSLVSSRRTWVQGEMFELYWRRPKKIVSESTPAATESPTSGTIPLIRDKMQKMCDCVMSGGPHTFKVRLFILKNDKIEQKWQDEQELKKKEKELKRKNDAEAKRLRMEERKRQQMQKKIAKEQKLQLQKENKAKQKLEQEALKLKRKEEMKKLKEQNKNKQGSPSSSMHDPRMIMNLNLMAQEDPKLNTLMETVAKGLANNSQLEEFKKFIEIAKKRSLEENPVNKRPSVTTTRPAPPSKAKDVAEDHRLNSITLVKSSKTAATEPEPKKADDENAEKQQSKEAKTTAESTQVDVKKEEEDVKEKGVKSEDTQKKEDNQVVPKRKRRKNAIKEDKDMQLTAFQQKYVQGAEIILEYLEFTHSRYYLPKKSVVEFLEDTDEIIISWIVIHNSKEIEKFKTKKIKAKLKADQKLNKEDAKPGSDVEKEVSFNPLFEADCPTPLYTPMTMKLSGIHKRFNQIIRNSVSPMEEVVKEMEKILQIGTRLSGYNLWYQLDGYDDEALSESLRFELNEWEHAMRSRRHKR
notes: Swc3, C-Module subunit of SWR1, S. cerevisiae; source: endogenous, S. cerevisiae; co-purified in the SWR1 complex
Consider B5, for which the binding result in assay [3] is reported as “binds”.
